B1: LM8, subclone of APNG1 expressing amino acids 1-249 (protein)
chain: MADPVYVGGFLVRYDEPPGEAELFLPSGVVDRWLRDCRGPLPLNVNHDESATVGYVAGLQNVRAGLFCLGRVTSPKFLDIVQKASEKSELVSRGPPSESSLRPDGVLEFLSGSYSGLSLSSRRDINAADGAAGDAETACFKHVALCSVGRRRGTLAVYGRQPDWVMERFPDLTEADREALRNQLSGSGEVAAKESAESSAAAAVDPFQSDSYGLLGNSVDALYIQERLPKLRYDKRLVGVTARESYVKA
B2: LM7, subclone of APNG1 expressing amino acids 1-280 (protein)
chain: MADPVYVGGFLVRYDEPPGEAELFLPSGVVDRWLRDCRGPLPLNVNHDESATVGYVAGLQNVRAGLFCLGRVTSPKFLDIVQKASEKSELVSRGPPSESSLRPDGVLEFLSGSYSGLSLSSRRDINAADGAAGDAETACFKHVALCSVGRRRGTLAVYGRQPDWVMERFPDLTEADREALRNQLSGSGEVAAKESAESSAAAAVDPFQSDSYGLLGNSVDALYIQERLPKLRYDKRLVGVTARESYVKASVSPAEQETCDIKVEKERPKEPEQSHVPTES

Target: CMV Colburn assembly protein precursor (product of APNG.5)

Protein	proteolytic activity
B1	Both are proteolytically active using assembly protein precursor as a substrate
B2	Both are proteolytically active using assembly protein precursor as a substrate
